Test system: peptide library, one residue held at a place counted from the Y acceptor
Assay: relative phosphorylation of the sub-library (ratio to the mean residue at this position); higher = residue favoured
Procedure, shortened: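 Within 384-well plates, purified recombinant kinases phosphorylated biotinylated Tyr-centred peptide library mixtures over 90 min using 50 μM ATP spiked with γ-32P-ATP; each mixture fixed one residue at one position from −5 to +5. Streptavidin membrane capture, rinsing, phosphorimaging and ImageQuant gave the intensities. These were normalized per position to the sum of the 18 randomized residues (16 for the Ser/Thr-free library) and multiplied by that number.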

Sequence of BMX, construct: Full length, human (P51813 whole entry, looked up): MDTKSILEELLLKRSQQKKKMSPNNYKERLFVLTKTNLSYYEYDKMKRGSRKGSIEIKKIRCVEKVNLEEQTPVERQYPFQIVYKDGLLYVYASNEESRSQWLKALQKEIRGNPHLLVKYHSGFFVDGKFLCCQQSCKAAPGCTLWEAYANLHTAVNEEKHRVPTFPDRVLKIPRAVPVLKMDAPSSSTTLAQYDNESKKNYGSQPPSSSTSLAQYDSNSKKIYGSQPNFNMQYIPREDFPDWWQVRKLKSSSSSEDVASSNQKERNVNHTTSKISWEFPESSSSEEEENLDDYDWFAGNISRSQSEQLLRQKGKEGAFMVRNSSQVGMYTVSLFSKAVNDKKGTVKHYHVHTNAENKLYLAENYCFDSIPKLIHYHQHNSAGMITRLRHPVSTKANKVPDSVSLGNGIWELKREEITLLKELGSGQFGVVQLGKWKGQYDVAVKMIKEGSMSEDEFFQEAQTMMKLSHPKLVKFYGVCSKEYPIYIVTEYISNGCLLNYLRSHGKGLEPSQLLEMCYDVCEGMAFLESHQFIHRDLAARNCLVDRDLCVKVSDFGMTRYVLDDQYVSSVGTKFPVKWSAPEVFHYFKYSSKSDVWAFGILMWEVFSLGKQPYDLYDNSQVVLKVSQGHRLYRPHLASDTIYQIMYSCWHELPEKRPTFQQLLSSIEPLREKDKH

BMX, construct: Full length, human (from UniProt P51813)
relative phosphorylation
Conditions	at +1	at +2	at +3	at +4	at +5	at -1	at -2	at -3	at -4	at -5
A fixed	1.73	1.01	0.847	0.846	0.939	0.521	1.05	0.992	1.04	1.05
D fixed	0.82	0.761	0.324	0.746	0.903	0.726	1.43	1.48	1.31	1.11
E fixed	1.85	1.27	0.292	0.959	0.958	0.812	1.5	1.56	1.43	1.03
F fixed	0.504	1.02	1.53	0.876	1.11	1.13	0.558	1.12	0.855	0.993
G fixed	0.807	0.605	0.799	1.11	1.08	0.293	1.18	0.958	1.33	1.13
H fixed	0.451	0.611	2.04	1.1	1.01	0.643	0.912	0.864	0.866	0.921
I fixed	1.61	1.08	1.25	0.722	0.764	3.28	0.744	0.636	0.845	0.855
K fixed	0.251	0.768	0.639	0.881	0.914	0.281	0.792	0.672	0.898	1.03
L fixed	0.714	1	1.1	0.849	0.762	3.33	0.799	0.704	0.884	1.02
M fixed	1.28	0.979	1.15	1.06	1.04	1.24	0.71	0.805	0.958	0.938
N fixed	0.44	0.919	0.558	0.784	0.99	0.567	1.27	1.39	1.03	1.15
P fixed	0.166	0.873	0.569	1.12	1.3	0.5	1.38	1.13	1.27	1.19
Q fixed	1.26	1.02	1.09	1.19	0.953	0.652	1.3	1.08	1.26	1.1
R fixed	0.332	0.919	1.47	1.27	1.2	0.298	0.81	0.823	0.987	1.06
S fixed	1.38	1.27	0.866	0.935	1.1	0.475	1.18	1.08	0.797	0.923
T fixed	1.39	1.35	0.704	0.936	1.02	1.1	1.03	0.909	0.724	0.787
V fixed	1.74	1.42	1.24	0.898	0.788	1.64	0.866	0.792	0.738	0.867
W fixed	1.28	1.11	1.53	1.73	1.16	0.501	0.493	0.987	0.777	0.868
pThr fixed	2.3	2.57	0.296	0.734	0.603	2.21	1.19	1.25	1.09	0.986
pTyr fixed	1.29	2.49	0.504	0.852	0.858	9.03	1.27	1.46	1.22	1.05
